We go through two molecules from US20230357323A1, “HUMAN IL23 RECEPTOR BINDING POLYPEPTIDES” (University of Washington, priority 2020, published 2023).

One data set concerns the target T1, human IL-23R (hIL-23R) (Homo sapiens, UniProt Q5VWK5).
T1 construct: his tag (C); purchased
T1 sequence (Q5VWK5 24-629): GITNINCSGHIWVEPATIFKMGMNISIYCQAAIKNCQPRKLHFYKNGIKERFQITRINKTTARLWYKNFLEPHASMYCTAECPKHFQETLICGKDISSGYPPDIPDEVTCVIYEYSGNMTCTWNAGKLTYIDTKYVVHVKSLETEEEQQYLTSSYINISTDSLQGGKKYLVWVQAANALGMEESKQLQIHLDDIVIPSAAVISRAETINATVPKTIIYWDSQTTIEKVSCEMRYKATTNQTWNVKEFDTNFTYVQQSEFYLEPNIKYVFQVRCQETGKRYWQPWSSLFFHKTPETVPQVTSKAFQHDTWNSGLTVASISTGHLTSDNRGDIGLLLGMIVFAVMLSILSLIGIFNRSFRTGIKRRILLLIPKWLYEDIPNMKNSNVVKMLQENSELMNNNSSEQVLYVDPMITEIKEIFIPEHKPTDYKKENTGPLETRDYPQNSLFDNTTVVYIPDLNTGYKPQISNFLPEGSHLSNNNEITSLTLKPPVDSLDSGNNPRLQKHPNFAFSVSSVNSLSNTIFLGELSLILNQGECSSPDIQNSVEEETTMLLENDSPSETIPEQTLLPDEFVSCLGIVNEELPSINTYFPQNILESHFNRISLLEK
The experiment in a line: Biolayer interferometry (BLI) binding to hIL-23R. Particulars: biolayer interferometry binding titrations; read-out: affinity (KD) for hIL-23R. The text has this: Two designs, 23R_A (SEQ ID NO:10) and 23R_B (SEQ ID NO:110), were highly enriched in the final selection pool and were chosen for further biochemical characterization. Both designs are 3-helix bundles (54 and 53 residues, respectively) which incorporate the native Trp hotspot at the N-terminal end of a helix such that IL-23R residue D118 forms a helix-capping hydrogen bond with the Trp hotspot's free backbone amine, similar to the αD helix of p19 (FIG. 1D). In both designs, this central binding helix has a larger interaction surface with hIL-23R, mediated by additional de novo hotspots, than p19. […]
Variants were first screened for relative binding to hIL-23R with biolayer interferometry (BLI). hIL-23R was immobilized on the BLI sensor tips and binding to each variant in solution at a constant concentration (50 nM) was measured to qualitatively determine relative performance of the variants. For the best-performing variants, binding constants (KD, including kon, and koff) were quantitatively determined with BLI titration experiments in triplicate. […]
Qualitative and quantitative assessment of binding affinity was performed using biolayer interferometry (ForteBio Octet™ […] and associated software for analysis). […] Kinetic constants were determined from the mathematical fit of a 1:1 binding model.
For orientation: Biolayer interferometry detects binding as a change in optical thickness at a sensor tip.

Data set [1] in a line: Circular dichroism temperature and chemical denaturant (GuHCl) melts. The class given is physicochemical. The method, then: FIG. 3. Stability analysis of B08, a representative affinity-matured combinatorial variant and BO4dslf02, a representative disulfide-stabilized variant. (A) Designed proteins were incubated in simulated gastric or intestinal fluids and degradation was assessed by SDS PAGE at 5, 15, 30 and 60 minutes, 4 and 24 hours. (B) Resistance to temperature and chemical denaturant (GuHCl) was assessed by circular dichroism, measuring the helical signature (signal at 222 nm) in the conditions shown normalized to baseline (25° C. and 0 M GuHCl).
CD spectra were recorded with a J-1500 Circular Dichroism Spectrometer (JASCO). Proteins were assayed at […] in DPBS free of MgCl2 and […]. (Life Technologies) with guanidinium hydrochloride from 0 to 6 M, and data were collected at 25° C. For temperature melts, proteins at […] were heated from 25° C. to 95° C. over approximately 1.5 hours.
In general terms: CD spectra are sensitive to the conformation of chiral molecules.

Where two headings read alike, the source gives them in different places.

As usually defined, the Kd is the equilibrium constant for the complex coming apart.

B1: … (protein)
chain 1: MESEKYLRELVKKYYEGKLSVQEAVEEVRKYARKKGLEAWMLTWMFMELVKRYI
chain 2: B1 chain 1
notes: computational design, 3-helix bundle, 54 residues
Take B1: the dissociation constant Kd with human IL-23R (hIL-23R) is 0.026 ± 0.001 µM. The “stability by circular dichroism (CD)” value in data set [1] (high temperature and high concentrations of chemical denaturant) was “high stability”.

B2: NLWQIFYQLSTILKRTGDPTAKKLLKALAEALKKGDEKALKELAKKATKYIRS (protein)
chain 1: NLWQIFYQLSTILKRTGDPTAKKLLKALAEALKKGDEKALKELAKKATKYIRS
chain 2: B2 chain 1
notes: computational design, 3-helix bundle, 53 residues
Take B2: the Kd in the data set with human IL-23R (hIL-23R) worked out at 0.07 ± 0.05 µM. Also, in data set [1], the “stability by circular dichroism (CD)” value is on record as “high stability”.
